For four molecules, ECL signal results are on record in patent US20120316071A1 (published 2012).

Assay [1] deals with T1, Recombinant Human DLL4 (R&D Systems Cat#1506-D4/CF) (human, UniProt Q9NR61 27-524).
T1 construct: Bought recombinant protein; also called rHuman DLL4; delta-like protein 4
The assay is described as follows: MSD Multispot ECL, antigen spotted on plate, Fab at 3.8 nM; blank spot 198.

The target of assay [2] is T2, rHuman Notch-1/Fc Chimera, CF (R&D Systems Cat#3647-TK) (human, UniProt P46531 19-526).
T2 construct: Bought Fc chimera; Fc part of the bought chimera not given
The assay is described as above.

Assay [3] concerns the target T3, rHuman P-Cadherin/Fc Chimera, CF (R&D Systems Cat#861-PC) (human, UniProt P22223 108-654).
T3 construct: Bought Fc chimera; Fc part of the bought chimera not given
The assay is described as above.

Assay [4] addresses T4, rHuman Erythropoietin R/Fc Chimera, CF (R&D Systems Cat#963-ER) (human, UniProt P19235 25-250).
T4 construct: Bought Fc chimera; also called EPO R/Fc; Epo R; Fc part of the bought chimera not given
T4 sequence (looked up): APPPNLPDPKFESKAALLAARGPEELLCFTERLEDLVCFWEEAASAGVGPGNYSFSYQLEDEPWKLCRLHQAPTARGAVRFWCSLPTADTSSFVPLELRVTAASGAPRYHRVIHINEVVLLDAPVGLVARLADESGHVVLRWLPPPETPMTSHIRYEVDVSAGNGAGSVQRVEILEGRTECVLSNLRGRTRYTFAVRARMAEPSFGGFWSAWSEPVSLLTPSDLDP
The assay is described as above.

Assay [5] has as its target T5, Recombinant Human DLL4 (R&D Systems Cat#1506-D4/CF) (human, UniProt Q9NR61 27-524).
T5 construct: Bought recombinant protein; also called rHuman DLL4; delta-like protein 4
The assay is described as follows: MSD multispot ECL, antigen spotted, Fab 0.6 nM; blank spot 226.

The target in assay [6] is T6, rHuman ErbB2/Fc Chimera, CF (R&D Systems Cat#1129-ER) (human, UniProt P04626 23-652).
T6 construct: Bought reagent; also called human epidermal growth factor 2 receptor
The description is as above.

In assay [7] the target is T7, rHuman EGF R/Fc Chimera, CF (R&D Systems Cat#344-ER) (human, UniProt P00533 25-645).
T7 construct: Bought reagent; also called epidermal growth factor receptor
Described as above.

The target of assay [8] is T8, rHuman HGF R/c-MET/Fc Chimera, CF (R&D Systems Cat#358-MT/CF) (human, UniProt P08581 25-932).
T8 construct: Bought reagent; also called HGF R/Fc; hepatocyte growth factor receptor
The assay is described as above.

The target of assay [9] is T9, rHuman Notch-1/Fc Chimera, CF (R&D Systems Cat#3647-TK) (human, UniProt P46531 19-526).
T9 construct: Bought reagent
The assay is described as above.

Assay [10] has as its target T10, rHuman CD44/Fc Chimera, CF (R&D Systems Cat#3660-CD) (human, UniProt P16070 21-220).
T10 construct: Bought reagent
The assay is described as above.

The target of assay [11] is T11, rHuman IGF-1 sR, (IGF-1 sR), CF (R&D Systems Cat#391-GR) (human, UniProt P08069 31-932).
T11 construct: Bought soluble receptor; also called insulin-like growth factor-1 soluble receptor
The description is as above.

The target in assay [12] is T12, rHuman Erythropoietin R/Fc Chimera, CF (R&D Systems Cat#963-ER) (human, UniProt P19235 25-250).
T12 construct: Bought reagent; also called EPO R/Fc; Epo R
T12 sequence (looked up): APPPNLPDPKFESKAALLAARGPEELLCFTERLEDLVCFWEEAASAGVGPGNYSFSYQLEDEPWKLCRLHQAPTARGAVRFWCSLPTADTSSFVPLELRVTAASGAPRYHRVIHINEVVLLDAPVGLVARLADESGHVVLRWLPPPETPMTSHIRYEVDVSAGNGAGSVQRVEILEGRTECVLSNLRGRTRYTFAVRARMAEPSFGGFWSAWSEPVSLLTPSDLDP
Described as above.

The target in assay [13] is T13, Recombinant Human DLL4 (R&D Systems Cat#1506-D4/CF) (human, UniProt Q9NR61 27-524).
T13 construct: Bought recombinant protein; also called rHuman DLL4; delta-like protein 4
Nature of the assay: Multispot ECL (MSD), antigen spotted on plate, Fab 7.8 nM; blank spot 316.

Assay [14] deals with T14, rHuman Notch-1/Fc Chimera, CF (R&D Systems Cat#3647-TK) (human, UniProt P46531 19-526).
T14 construct: Bought recombinant protein; Fc part of the bought chimera not given
Described as above.

Assay [15] addresses T15, rHuman IGF-1 sR, CF (R&D Systems Cat#391-GR) (human, UniProt P08069 31-932).
T15 construct: Bought recombinant soluble receptor; also called insulin-like growth factor-1 soluble receptor
Described as above.

The target of assay [16] is T16, rHuman Erythropoietin R/Fc Chimera, CF (R&D Systems Cat#963-ER) (human, UniProt P19235 25-250).
T16 construct: Bought recombinant protein; also called EPO R/Fc; Epo R; Fc part of the bought chimera not given
T16 sequence (looked up): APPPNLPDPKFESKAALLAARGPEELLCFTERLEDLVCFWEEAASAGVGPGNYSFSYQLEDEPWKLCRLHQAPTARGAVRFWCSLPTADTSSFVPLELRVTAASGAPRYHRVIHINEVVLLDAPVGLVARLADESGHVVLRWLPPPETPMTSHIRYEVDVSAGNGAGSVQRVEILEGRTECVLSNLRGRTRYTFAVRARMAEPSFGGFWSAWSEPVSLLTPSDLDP
Described as above.

The target of assay [17] is T17, rHuman EGF R/Fc Chimera, CF (R&D Systems Cat#344-ER) (human, UniProt P00533 25-645).
T17 construct: Bought from R&D Systems; also called epidermal growth factor receptor (EGF R); not shown: Fc of the bought chimera
Nature of the assay: MSD multispot ECL, antigen spotted on plate, Fab 88.1 nM; blank spot 301.

The target in assay [18] is T18, rHuman IGF-1 sR, (IGF-1 sR), CF (R&D Systems Cat#391-GR) (human, UniProt P08069 31-932).
T18 construct: Bought from R&D Systems and called a soluble receptor; also called insulin-like growth factor-1 soluble receptor
The assay is described as above.

Assay [19] deals with T19, rHuman P-Cadherin/Fc Chimera, CF (R&D Systems Cat#861-PC) (human, UniProt P22223 108-654).
T19 construct: Bought from R&D Systems; not shown: Fc of the bought chimera
The description is as above.

T8 sequence (P08581 25-932, change not shown): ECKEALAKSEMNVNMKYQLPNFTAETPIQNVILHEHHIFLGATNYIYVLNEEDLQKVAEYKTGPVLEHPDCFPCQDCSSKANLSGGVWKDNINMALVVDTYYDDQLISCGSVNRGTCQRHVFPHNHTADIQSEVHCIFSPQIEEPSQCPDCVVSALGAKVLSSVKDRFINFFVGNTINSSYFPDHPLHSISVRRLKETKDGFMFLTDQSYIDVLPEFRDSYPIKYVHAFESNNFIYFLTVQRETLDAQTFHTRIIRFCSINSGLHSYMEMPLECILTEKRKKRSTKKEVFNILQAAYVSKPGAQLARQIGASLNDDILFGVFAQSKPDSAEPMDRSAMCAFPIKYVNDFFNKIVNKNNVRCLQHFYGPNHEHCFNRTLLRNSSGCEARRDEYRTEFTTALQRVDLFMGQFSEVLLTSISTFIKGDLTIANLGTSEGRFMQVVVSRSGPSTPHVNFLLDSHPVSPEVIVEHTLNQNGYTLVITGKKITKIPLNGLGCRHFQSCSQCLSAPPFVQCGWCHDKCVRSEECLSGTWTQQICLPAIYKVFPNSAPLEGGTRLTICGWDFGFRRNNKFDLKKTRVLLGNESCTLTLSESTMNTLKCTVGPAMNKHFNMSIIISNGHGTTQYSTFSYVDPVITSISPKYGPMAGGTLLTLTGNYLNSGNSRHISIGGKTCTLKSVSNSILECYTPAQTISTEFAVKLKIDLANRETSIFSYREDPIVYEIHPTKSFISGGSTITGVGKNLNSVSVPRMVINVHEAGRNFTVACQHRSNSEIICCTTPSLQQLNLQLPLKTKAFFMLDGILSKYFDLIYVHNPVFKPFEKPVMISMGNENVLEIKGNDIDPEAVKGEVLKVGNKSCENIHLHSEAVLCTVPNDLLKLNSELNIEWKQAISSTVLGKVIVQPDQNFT

B1: Fab VH6-1_IGHD3-3*01_IGHJ4*01 & V4-3_IGLJ4*01 (Fab, V domains shown)
VH: QVQLQQSGPGLVKPSQTLSLTCAISGDSVSSNSAAWNWIRQSPSRGLEWLGRTYYRSKWYNDYAVSVKSRITINPDTSKNQFSLQLNSVTPEDTAVYYCAREYYDFWSGYYTDYFDYWGQGTLVTVSS
VL: QPVLTQPTSLSASPGASARLTCTLRSGINLGSYRIFWYQQKPESPPRYLLSYYSDSSKHQGSGVPSRFSGSKDASSNAGILVISGLQSEDEADYYCMIWHSSASFVFGGGTQLIIL
notes: Tested as a purified germline Fab made in E. coli; The VH was cloned into plasmid A (CH1 constant region, His6 and Flag tags) and the lambda VL into plasmid E (lambda CL)
Turning to B1, the ECL signal in assay [1] turned out to be 462; in assay [2] it was 383; in assay [3] it was 281; in assay [4] it was 407.

B2: Fab VH1-46_IGHD6-6*01_IGHJ1*01 & L6_IGKJ1*01 (Fab, V domains shown)
VH: QVQLVQSGAEVKKPGASVKVSCKASGYTFTSYYMHWVRQAPGQGLEWMGIINPSGGSTSYAQKFQGRVTMTRDTSTSTVYMELSSLRSEDTAVYYCAREEYSSSSAEYFQHWGQGTLVTVSS
VL: not shown
notes: Only variable domains are tied to the molecule; Tested as a Fab made in E. coli: heavy chain from Plasmid A (CH1 constant region, His6 and Flag tags), kappa light chain from Plasmid C (kappa CL); also called parent Hit Fab against DLL4; VH1-46_IGHD6-6*01_IGHJ1*01 & L6_IGKJ1*01 (parental)
Consider B2, for which the ECL signal in [5] is 508 ECL signal; in [6], 215 ECL signal; in assay [7], 309 ECL signal; in [8], 256 ECL signal; in assay [9] it was 337 ECL signal; in [10] it was 238 ECL signal. In addition, the ECL signal in assay [11] came out at 313 ECL signal; in assay [12], 337 ECL signal.

B3: Fab VH1-46_IGHD6-13*01_IGHJ4*01 & B3_IGKJ1*01 (Fab, V domains shown)
VH: QVQLVQSGAEVKKPGASVKVSCKASGYTFTSYYMHWVRQAPGQGLEWMGIINPSGGSTSYAQKFQGRVTMTRDTSTSTVYMELSSLRSEDTAVYYCAREGYSSSWYDYFDYWGQGTLVTVSS
VL: not shown
notes: Germline Fab made in E. coli; VH was cloned into Plasmid A (CH1, His6 and Flag tags) and the kappa VL into Plasmid C (kappa CL)
As to B3, the ECL signal in [13] was determined as 407; in assay [14], 486; in assay [15], 353; in assay [16], 6760.

B4: Fab VH1-46_IGHD3-10*01_IGHJ4*01 & B3_IGKJ1*01 (Fab, V domains shown)
VH: QVQLVQSGAEVKKPGASVKVSCKASGYTFTSYYMHWVRQAPGQGLEWMGIINPSGGSTSYAQKFQGRVTMTRDTSTSTVYMELSSLRSEDTAVYYCAREYYYGSGSYYNDYFDYWGQGTLVTVSS
VL: not shown
notes: Tested as a Fab made in E. coli; VH was cloned into Plasmid A (CH1 constant region, His6 and Flag tags); The kappa VL was cloned into Plasmid C (kappa CL)
Take B4: the ECL signal was determined as 376 in assay [17], 273 in assay [18] and 278 in [19].
